From US20140227179A1 (published 2014)

Molecular target: T1, MUC5ac mucin (PAM4 antigen) from CaPan1 human pancreatic carcinoma (human, UniProt P98088 28-5654, limits assumed, heavily glycosylated native mucin)
T1 construct: The antigen was never used as a pure recombinant protein; also called CaPan1 Ag; CaPan1 antigens
Test: ELISA on target mucin antigen (FIG. 9)

EC50: 1.83 nM
B1: PAM4-F(ab′)2 (other)
chain 1: EVQLQESGPELVKPGASVKMSCKASGYTFPSYVLHWVKQKPGQGLEWIGYINPYNDGTQYNEKFKGKATLTSDKSSSTAYMELSRLTSEDSAVYYCARGFGGSYGFAYWGQGTLITVSA
chain 2: DIVMTQSPAIMSASPGEKVTMTCSASSSVSSSYLYWYQQKPGSSPKLWIYSTSNLASGVPARFSGSGSGTSYSLTISSMEAEDAASYFCHQWNRYPYTFGGGTKLEIK
